Consider three molecules from patent US20060003400A1, “Methods and compositions for characterizing a redox reagent system enzyme” (priority 2004, published 2006).

Substitutions are numbered along the chain they refer to.

What all share (format): biochemical
Experiment [1] can be described thus: Conventional enzyme-coated test strips dosed with whole blood spiked with interfering sugar, chronoamperometry. As to conditions: whole blood about 80 mg/dL glucose spiked with about 4 mM or 12 mM xylose; FIG. 4. As to the method: In order to develop an assay for screening mutant forms of s-GDH with varying sugar specificities, the response of wild type and mutant forms of s-GDH with reducing sugars first were tested in a conventional enzyme-coated glucose test strip format. The screening assay ideally mimics the response shown with conventionally enzyme-coated strips tested with whole blood or plasma spiked with a reducing sugar. The mutant forms of s-GDH tested contained one amino acid substitution each: Asn452Thr and Asp167Glu. The test strips were made by a web-based process in which the working electrode (gold) was slot coated with a buffered reagent solution containing approximately 50 to 500 kU/ml wild type or mutant s-GDH, PQQ at a 2 to 1 mole ratio of PQQ to GDH, 2 mM CaCl2, 750 mM ferricyanide, 67 mM citraconate at pH 6.8, 0.1% pluronics and 75 mM sucrose. […] The activity of each enzyme was based on a spectrophotometric assay using DCIP (2,6-Dichlorophenolindophenol) and PES (Phenazine Ethosulfate) in 50 mM PIPES (Piperazine, N,N′bis-(2-ethanesulfonic acid)) buffer at pH 6.8. In the assay, change in the absorbance of DCIP at 600 nm was monitored and the decreasing rate of absorbance was referred to as the reaction rate of the enzyme. The enzyme activity by which […] of DCIP was reduced in one minute was defined as 1 Unit. The molar absorption coefficient of DCIP at pH 6.8 was 17.4 mM-1. A COBAS FARA II centrifugal analyzer was used for the spectrophotometric assay. […]
Whole blood at about 80 mg/dL (or 4.4 mM) of endogenous glucose was spiked with either a high therapeutic level (about 60 mg/dL or 4 mM) or three times a high therapeutic level (about 180 mg/dL or 12 mM) of the interfering sugar xylose. The spiked samples were dosed onto the above test strips and glucose concentration was determined by chronoamperometry in which a potential of −0.3 V was applied for 10 seconds, followed by applying a potential of +0.3 V for 5 seconds. Absolute bias to a control sample with no xylose was calculated for each enzyme and was expressed as a function of xylose concentration, as shown in FIG. 4.

The nature of experiment [2]: DCIP/PES spectrophotometric assay (enzyme-limiting conditions). The settings on record: same range of sugar concentrations; results not shown. The procedure: (§1) In order to develop an assay for screening mutant forms of s-GDH with varying sugar specificities, the response of wild type and mutant forms of s-GDH with reducing sugars first were tested in a conventional enzyme-coated glucose test strip format. The screening assay ideally mimics the response shown with conventionally enzyme-coated strips tested with whole blood or plasma spiked with a reducing sugar. The mutant forms of s-GDH tested contained one amino acid substitution each: Asn452Thr and Asp167Glu. The test strips were made by a web-based process in which the working electrode (gold) was slot coated with a buffered reagent solution containing approximately 50 to 500 kU/ml wild type or mutant s-GDH, PQQ at a 2 to 1 mole ratio of PQQ to GDH, 2 mM CaCl2, 750 mM ferricyanide, 67 mM citraconate at pH 6.8, 0.1% pluronics and 75 mM sucrose. […] In the assay, change in the absorbance of DCIP at 600 nm was monitored and the decreasing rate of absorbance was referred to as the reaction rate of the enzyme. […]
(§2) Plasma with about 80 mg/dL (or 4.4 mM) endogenous glucose was spiked with up to 40 mM each of five reducing sugars: glucose, maltose, xylose, galactose and lactose. The spiked samples were dosed onto the above test strips and glucose concentration was determined by chronoamperometry as above. […]

The nature of experiment [3]: Conventional wild type s-GDH-coated test strips dosed with plasma spiked with reducing sugars, chronoamperometry. The settings on record: plasma spiked with up to 40 mM of five reducing sugars; at less than about 10 mM; FIG. 5. The procedure:
as §1, §2

Experiment [4] is described as follows: Enzyme/sugar solution dosed onto enzyme-free electrochemical cell (process of the invention), current response. The settings on record: FIGS. 6-8; for Current response to xylose compared with glucose: xylose less than 10 mM, about 13 activity units per cell; for Current response to all reducing sugars tested: sugars up to about 40 mM. The procedure: The response of wild-type s-GDH to reducing sugars was measured using electrochemical cells (i.e., test strips) made by a web-based process in which the working electrode (gold) was slot coated with a buffered reagent solution containing 750 mM ferricyanide, 67 mM citraconate at pH 6.8, 0.1% pluronics and 75 mM sucrose. As in Example 1, an IR energy source was used to dry the reagent onto the working electrode. Electrochemical cells were formed by adhering the working electrode with dried reagent to a gold counter electrode containing dried MESA to prevent fouling of the counter electrode.
Wild-type s-GDH in 67 mM citraconate at pH 6.8 with PQQ at a 2 to 1 mole ratio of PQQ to GDH and 2 mM CaCl2 was mixed with physiologically relevant concentrations (up to about 40 mM or 720 mg/dL) of one of the following sugars: glucose, xylose, galactose, maltose, or lactose. The concentration of the wild type s-GDH in each solution was adjusted such that approximately 13 activity units per electrochemical cell were used. Each enzyme/sugar-containing solution was dosed onto an electrochemical cell containing dried ferricyanide, citraconate, Pluronics and sucrose but no enzyme (see above for concentrations). The current response was measured and the average of three determinations was graphed as a function of sugar concentration, as shown in FIG. 6.
The response of Asn452Thr to reducing sugars was measured using the same lot of electrochemical cells as described in Example 2 above (i.e., with cells containing dried ferricyanide, citraconate, Pluronics and sucrose but no enzyme). Asn452Thr was mixed with physiologically relevant concentrations (up to about 40 mM or 720 mg/dL) of one of the following sugars: glucose, xylose, galactose, maltose, or lactose. The concentration of Asn452Thr in each solution was adjusted such that approximately 13 activity units per electrochemical cell were used. Each enzyme/sugar-containing solution was dosed onto an electrochemical cell containing dried ferricyanide, citraconate, Pluronics and sucrose but no enzyme. […] Thus, the assay mimics the results obtained with Asn452Thr-coated strips with the advantages discussed above.
The response of Asp167Glu to reducing sugars was measured as described in Example 3 above. Asp167Glu was mixed with physiologically relevant concentrations (up to about 40 mM or 720 mg/dL) of one of the following sugars: glucose, xylose, galactose, maltose, or lactose; and dosed onto an electrochemical cell containing dried ferricyanide, citraconate, Pluronics and sucrose but no enzyme. […] Thus, again, the assay beneficially mimics the results obtained with Asp167Glu-coated strips but in a quick and easy-to-use format.

B1: wild-type s-GDH: soluble form of pyrroloquinoline quinone (PQQ)-dependent glucose dehydrogenase, naturally occurring (protein, UniProt P13650 25-478, looked up)
Quinoprotein glucose …: DVPLTPSQFAKAKSENFDKKVILSNLNKPHALLWGPDNQIWLTERATGKILRVNPESGSVKTVFQVPEIVNDADGQNGLLGFAFHPDFKNNPYIYISGTFKNPKSTDKELPNQTIIRRYTYNKSTDTLEKPVDLLAGLPSSKDHQSGRLVIGPDQKIYYTIGDQGRNQLAYLFLPNQAQHTPTQQELNGKDYHTYMGKVLRLNLDGSIPKDNPSFNGVVSHIYTLGHRNPQGLAFTPNGKLLQSEQGPNSDDEINLIVKGGNYGWPNVAGYKDDSGYAYANYSAAANKSIKDLAQNGVKVAAGVPVTKESEWTGKNFVPPLKTLYTVQDTYNYNDPTCGEMTYICWPTVAPSSAYVYKGGKKAITGWENTLLVPSLKRGVIFRIKLDPTYSTTYDDAVPMFKSNNRYRDVIASPDGNVLYVLTDTAGNVQKDDGSVTNTLENPGSLIKFTYKAK
For B1, the “Absolute bias to a control sample with no xylose as a function of xylose concentration” value in experiment [1] is “linear correlation”. For the same molecule, the “Reactivity with xylose and galactose” value in experiment [2] is “low reactivity with xylose and galactose”. For the same molecule, the “Current response as a function of sugar concentration” value in experiment [3] is “reacts equally well with each of the five reducing sugars tested”. In experiment [4], the “Current response to xylose compared with glucose” value is “reacted equally well with glucose and xylose”.

B2: Asp167Glu: mutant form of s-GDH with one amino acid substitution, Asp167Glu (protein, UniProt P13650 25-478, looked up, variant D167E)
Quinoprotein glucose …: B1 Quinoprotein glucose … with D143E
As for B2, the “Absolute bias to a control sample with no xylose as a function of xylose concentration” value in experiment [1] is on record as “reduced response with xylose”. Moreover, in experiment [4], the “Current response to all reducing sugars tested” value is “reacts equally well with all the other reducing sugars tested” and the “Current response to xylose compared with glucose” value was “reduced response to xylose”.

B3: Asn452Thr: mutant form of s-GDH with one amino acid substitution, Asn452Thr (protein, UniProt P13650 25-478, looked up, variant N452T)
Quinoprotein glucose …: B1 Quinoprotein glucose … with N428T
Consider B3, for which the “Absolute bias to a control sample with no xylose as a function of xylose concentration” value in experiment [1] is recorded as “linear correlation”. Moreover, in experiment [4], the “Current response to all reducing sugars tested” value is reported as “reacts equally well with all the sugars tested at less than 10 mM sugar”; the “Current response to xylose compared with glucose” value was “reacts equally well with glucose and xylose”.
